One block for each molecule: values may come before it.
Target: human ST2.Fc (extracellular domain of ST2 fused to Fc) (human) (UniProt Q01638)
UniProt Q01638, sequence (Q01638 19-328): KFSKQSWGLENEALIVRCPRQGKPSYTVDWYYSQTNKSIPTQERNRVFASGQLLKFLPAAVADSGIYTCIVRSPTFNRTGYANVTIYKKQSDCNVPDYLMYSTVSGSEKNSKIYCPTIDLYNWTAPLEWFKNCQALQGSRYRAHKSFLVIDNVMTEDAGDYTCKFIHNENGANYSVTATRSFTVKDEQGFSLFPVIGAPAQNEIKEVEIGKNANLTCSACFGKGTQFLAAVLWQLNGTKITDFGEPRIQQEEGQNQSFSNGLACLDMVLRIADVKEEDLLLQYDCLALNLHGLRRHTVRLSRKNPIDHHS

- EC50 in a short duration signalling assay (NFκB p65/RelA translocation in HUVEC): 0.15 nM
Molecule: human IL-33 (amino acids 112-270), reduced form (from UniProt O95760 112-270) (ligand)

- EC50 in a short duration signalling assay (NFκB p65/RelA translocation in HUVEC): 0.15 nM
B1: human IL-33 (112-270) complete Cys→Ser mutant (C208S, C227S, C232S and C259S) (ligand)
chain: SITGISPITEYLASLSTYNDQSITFALEDESYEIYVEDLKKDEKKDKVLLSYYESQHPSNESGDGVDGKMLMVTLSPTKDFWLHANNKEHSVELHKSEKPLPDQAFFVLHNMHSNSVSFESKTDPGVFIGVKDNHLALIKVDSSENLSTENILFKLSET

Source: paper PMC4579851
